This is an account of results in patent US20250002599A1 (NOVAROCK BIOTHERAPEUTICS, published 2025).

Positions count from the first letter of the chain named. Read-outs that look alike come from different tables or passages of the source.

The target in assay [1] is T1, human PD-L1 expressed on the cell surface (HEK293T-PD-L1 cells; Promega artificial APC CHO-K1 cells) (human, UniProt Q9NZQ7 19-290). Put plainly: cell-based or functional assay.
The target of assay [2] is T1, human PD-L1 expressed on the cell …. Put plainly: immunofluorescence imaging on HEK293T-PD-L1 cells.
For assay [3], the target named is T2, human recombinant PD-L1 protein (Acro Biosystems, cat #: PD1-H5229) (human, UniProt Q9NZQ7 19-238).
T2 construct: Bought protein; also called human PD-L1; recombinant human PD-L1
Put plainly: ELISA, PD-L1 protein coated on the plate, OD 405. (In an ELISA, binding on a coated surface is turned into a signal by an enzyme label.)

The target of assay [4] is T3, cynomolgus PD-L1 protein (Acro Biosystems, cat #: PD1-C52H4) (cynomolgus, UniProt Q9NZQ7 19-238 (human entry)).
T3 construct: Bought protein; also called cyno PD-L1
Put plainly: ELISA, PD-L1 protein coated on the plate, OD 405.

In assay [5] the target is T4, mouse PD-L1 protein (Acro Biosystems, cat #: PD1-M5220) (mouse, UniProt Q9EP73 19-238).
T4 construct: Bought protein; also called murine PD-L1
Put plainly: ELISA, PD-L1 protein coated on the plate, OD 405.

Assay [6] has as its target T2, human recombinant PD-L1 protein (Acro …). Put plainly: SPR (Biacore3000), antibody captured by anti-human IgG on CM5, PD-L1 as analyte, 1:1 binding with mass transfer. On the technique in general: In SPR one partner is held on a chip, and binding of the other changes the refractive index at the surface.
Assay [7] has as its target T5, human CD137 expressed on the cell surface of HEK293T cells (human, UniProt Q07011 24-255).
T5 construct: Stably or transiently transfected HEK293T cells; also on HEK293T and Jurkat T NFκB reporter cells; also called human CD137 (WT); 4-1BB
Put plainly: immunofluorescence imaging on HEK293T cells expressing human CD137.

Assay [8] has as its target T6, cynomolgus CD137 expressed on the cell surface of HEK293T cells (cynomolgus, UniProt Q07011 24-255 (human entry)).
T6 construct: also called cyno CD137
T6 chain: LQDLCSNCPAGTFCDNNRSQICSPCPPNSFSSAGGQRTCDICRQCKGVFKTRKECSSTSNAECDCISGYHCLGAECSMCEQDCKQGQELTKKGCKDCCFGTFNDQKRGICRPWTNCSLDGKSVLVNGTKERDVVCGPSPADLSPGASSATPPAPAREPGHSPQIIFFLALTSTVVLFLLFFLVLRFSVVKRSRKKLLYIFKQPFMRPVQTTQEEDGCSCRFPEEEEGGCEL
Put plainly: immunofluorescence imaging on HEK293T cells expressing cynomolgus CD137.

In assay [9] the target is T5, human CD137 expressed on the cell …. Put plainly: immunofluorescence imaging binding assay on human CD137-expressing HEK293T cells.
Assay [10] concerns the target T7, mouse CD137 expressed on the cell surface of HEK293T cells (mouse, UniProt P20334 24-256).
T7 construct: whole, on cells; also called murine CD137; mouse 4-1BB
Put plainly: immunofluorescence imaging binding assay on mouse CD137-expressing HEK293T cells.

Assay [11] deals with T7, mouse CD137 expressed on the cell …. The assay is described as above. The source holds these as a separate data set.
The target of assay [12] is T8, human CD137 (Sino Biological, cat #10041-H08H) (human, UniProt Q07011 24-186).
T8 construct: Bought protein used as the analyte in SPR; also called CD137 antigen in Biacore
Put plainly: SPR (Biacore3000), antibody captured by anti-human IgG on CM5, CD137 as analyte, 1:1 binding with mass transfer.

Assay [13] concerns the target T7, mouse CD137 expressed on the cell …. Put plainly: immunofluorescence imaging binding assay on mouse CD137-expressing HEK293T cells. This is another data set of the same source.
Assay [14] addresses T2, human recombinant PD-L1 protein (Acro …). Put plainly: ELISA, PD-L1 protein coated on the plate, OD 405. This is another data set of the same source.
In assay [15] the target is T3, cynomolgus PD-L1 protein (Acro …). Put plainly: ELISA, PD-L1 protein coated on the plate, OD 405. The source holds these as a separate data set.
Assay [16] has as its target T4, mouse PD-L1 protein (Acro Biosystems, …). Put plainly: ELISA, PD-L1 protein coated on the plate, OD 405. The source holds these as a separate data set.

T2 sequence (Q9NZQ7 19-238 limits assumed): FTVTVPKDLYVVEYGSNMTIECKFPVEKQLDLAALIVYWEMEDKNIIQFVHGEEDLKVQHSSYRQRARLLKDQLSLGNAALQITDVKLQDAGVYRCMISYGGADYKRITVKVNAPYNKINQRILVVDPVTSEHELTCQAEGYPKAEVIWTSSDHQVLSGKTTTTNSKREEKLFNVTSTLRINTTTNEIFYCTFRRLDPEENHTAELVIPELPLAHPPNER
T1 sequence (Q9NZQ7 19-290 limits assumed): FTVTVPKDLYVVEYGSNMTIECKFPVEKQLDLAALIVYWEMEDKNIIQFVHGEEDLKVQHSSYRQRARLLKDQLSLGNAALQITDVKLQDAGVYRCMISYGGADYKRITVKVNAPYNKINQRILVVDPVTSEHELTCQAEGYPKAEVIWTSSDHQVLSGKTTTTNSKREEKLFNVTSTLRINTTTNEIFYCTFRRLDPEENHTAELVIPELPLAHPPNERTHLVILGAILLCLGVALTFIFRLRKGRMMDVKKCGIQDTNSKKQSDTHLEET
T8 sequence (Q07011 24-186 limits assumed): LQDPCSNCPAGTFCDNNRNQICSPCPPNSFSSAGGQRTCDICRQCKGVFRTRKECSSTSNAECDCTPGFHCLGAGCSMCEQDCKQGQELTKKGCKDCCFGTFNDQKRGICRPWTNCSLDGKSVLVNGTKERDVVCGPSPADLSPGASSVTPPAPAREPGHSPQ
T7 sequence (P20334 24-256): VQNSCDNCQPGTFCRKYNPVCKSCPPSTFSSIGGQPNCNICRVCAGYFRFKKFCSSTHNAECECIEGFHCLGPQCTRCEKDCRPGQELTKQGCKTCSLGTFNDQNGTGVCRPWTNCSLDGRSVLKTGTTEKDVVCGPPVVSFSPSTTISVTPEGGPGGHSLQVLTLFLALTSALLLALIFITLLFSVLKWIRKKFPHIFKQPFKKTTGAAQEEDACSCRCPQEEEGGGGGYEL
T3 sequence (Q9NZQ7 other isoform, or with tags, fused parts or gaps limits assumed): as the sequence (Q9NZQ7 19-238 limits assumed) above, with A33T, A34S, S62N, R68Q, Q82R, F173L, T185A, T192I, H215L counted along it
T4 sequence (Q9EP73 19-238 limits assumed): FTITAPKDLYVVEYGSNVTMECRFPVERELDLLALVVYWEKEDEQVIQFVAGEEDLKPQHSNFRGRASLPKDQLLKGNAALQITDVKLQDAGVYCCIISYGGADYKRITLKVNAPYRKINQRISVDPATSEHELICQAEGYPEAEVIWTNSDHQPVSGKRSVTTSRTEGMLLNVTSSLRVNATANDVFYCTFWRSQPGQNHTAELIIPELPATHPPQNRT

B1: 1923Ab3 (antibody, V domains shown)
VH: QVQLVQSGAEVKKPGASVKVSCKASGYTFTSYDINWVRQATGQGLEWMGWMNPNSGITGYAQRFQGRVTMTRDTSISTAYMELSSLRSEDTAVYYCARHRWGKGYLDLWGRGTLVTVSS
VL: EIVMAQSPATLSLSPGERATLSCRASQSVSSSYLSWFQQKPGQAPRLLIYGASTRATGIPARFGGSGSGTDFTLTISSLQPEDFAVYYCQQDYNLPYTFGQGTKLEIK
notes: also called PD-L1 monospecific 1923Ab3; anti-PD-L1 antibody 1923Ab3
As usually defined, the EC50 is the concentration that produces a half-maximal response. Broadly, the Kd is a measure of binding affinity in units of concentration. Broadly, the koff is the rate constant with which the complex falls apart. In general, kon refers to the second-order rate constant of association. Turning to B1, the “IC50, PD-1/PD-L1 blockade luciferase reporter assay” value in assay [1] was determined as 0.43 nM. Besides, the EC50 in [2] turned out to be 0.18 nM. Besides, the EC50 in assay [3] was determined as 0.08 nM. This molecule yielded an EC50 in assay [4] of 0.07 nM. For the same molecule, the binding result in assay [5] is “no binding”. Further, in [6], the Kd came to 2.95 nM, the koff came to 0.0024 s⁻¹ and the kon stood at 814000 M⁻¹ s⁻¹.

B2: 1923Ab5 (antibody, human IgG1, V domains shown)
VH: QVQLVESGGGVVQPGRSLRLSCAASGFTFSSYGMHWVRQAPGKGLEWVAVIWYDGSNEYYADSVKGRFTISRDNSKNTLYLQMNSLRAEDTAVYYCARERWQWLVLFDYWGQGTLVTVSS
VL: B1 VL with M4L, A5T, S28T, V29I, S30T, F37Y, G64S, V86L, Y88F, Y93F
notes: also called CD137 monospecific 1923Ab5
Turning to B2, the results for the 50% effective concentration (EC50) in [7], in assay [8] and in assay [9] were 1.62 nM, 2.77 nM and 1.6 nM, respectively. Also, the binding result in assay [10] is on record as “no binding”.

B3: 1923Ab4 (antibody, V domains shown)
VH: QVQLVESGGGVVQPGRSLRLSCAASGFTFSNYGMHWVRQAPGKGLEWVAIIWYDGINKYYADSVKGRFTISRDNSKNTLYLQMNSLKAEDTAVYYCARDQDYDILTGYYKEDYFDFWGQGTLVTVSS
VL: SYELTQPPSVSVSPGQTARITCSGDALPKKYAYWYQQKSGQAPVLVIYEDSKRPSGIPERFSGSSSGTMATLTISGAQVEDEADYYCYSTDSSGNRVFGGGTKLTVL
notes: also called CD137 monospecific 1923Ab4; anti-CD137 1923Ab4
With B3, the EC50 in assay [7] came out at 0.29 nM. The molecule further came in with an EC50 in assay [8] of 0.22 nM. In addition, the binding result in assay [11] is on record as “no binding”. Further, in [12], the affinity, expressed as Kd, was 7.18 nM; the koff was found to be 0.0219 s⁻¹; the kon was 3.05e+06 M⁻¹ s⁻¹.

B4: 1923Ab6 (antibody, human IgG1, V domains shown)
VH: EVHLLESGGGLVQPGGSLRLSCAASGFTFSSYAMGWVRQAPGKGLEWVSIIGGGGGSTYYADSVKGRFTISRDNSKNTLYLQMNSLRAEDTAVYYCAKVGYSGTYGGWFDPWGQGTLVTVSS
VL: DIQMTQSPSSLSASIGDRVAITCRASQGISNYLAWFQQKPGKAPKSLIYAASSLQSGVPSKFSGSGSGTDFTLTISSLQPEDFATYYCQQYNSYPLTFGGGTKVEIK
notes: also called CD137 monospecific 1923Ab6
B4: the EC50 is 10.5 nM in assay [7], 4.23 nM in assay [8] and 11 nM in assay [9]. Further, in assay [13], the binding result is given as “no binding”.

B5: 1923Ab2 (antibody, V domains shown)
VH: QVQLVESGGGVVQPGRSLRLSCAASGFTFRNYGMHWVRQAPGKGLEWVAVIWFDGINKYYADSVKGRFTISRDNSENTLYLQMNSLRAEDTAVYYCARDRSSSPFDFWGQGTLVTVSS
VL: EIVMTQSPATLSLSPGERATLSCRASQNFSNNYLSWYQQTPGQAPRLLIYGASTRATGIPARFSGSGSGTDFTLTISSLQPEDFAVYYCQQDYNLFTFGPGTKVDIK
notes: Fully human variable regions from Trianni mice; Constant region as tested not clear: hybridoma-derived (mouse constant) or recombinant human IgG1 / IgG1 variant with human kappa; also called PD-L1 monospecific 1923Ab2; anti-PD-L1 antibody 1923Ab2
Consider B5, for which the “IC50, PD-1/PD-L1 blockade luciferase reporter assay” value in assay [1] was found to be 0.9 nM. The EC50 in assay [14] is 0.09 nM; in assay [15], 0.08 nM. Besides, in assay [16], the binding result was “no binding”.
